Measurements published in patent US20190100587A1 (COVAGEN, published 2019).

B1: Anti-PD1 mAb DANAPA IgG1 (antibody)
heavy: QVQLQQSGAELVKPGASVKMSCKAFGYTFTTYPIEWMKQNHGKSLEWIGNFHPYNDDTKYNEKFKGKAKLTVEKSSTTVYLELSRLTSDDSAVYYCARENYGSHGGFVYWGQGTLVTVSAASTKGPSVFPLAPSSKSTSGGTAALGCLVKDYFPEPVTVSWNSGALTSGVHTFPAVLQSSGLYSLSSVVTVPSSSLGTQTYICNVNHKPSNTKVDKKVEPKSCDKTHTCPPCPAPELLGGPSVFLFPPKPKDTLMISRTPEVTCVVVAVSHEDPEVKFNWYVDGVEVHNAKTKPREEQYASTYRVVSVLTVLHQDWLNGKEYKCKVSNKALAAPIEKTISKAKGQPREPQVYTLPPSREEMTKNQVSLTCLVKGFYPSDIAVEWESNGQPENNYKTTPPVLDSDGSFFLYSKLTVDKSRWQQGNVFSCSVMHEALHNHYTQKSLSLSPGK
light: ENVLTQSPAIMSASPGEKVTMTCRASSSVISSYLHWYQQKSGASPKLWIYSTSNLASGVPDRFSGSGSGTSYSLTISSVEAEDAATYYCQQYNGYPLTFGAGTKLEIKRTVAAPSVFIFPPSDEQLKSGTASVVCLLNNFYPREAKVQWKVDNALQSGNSQESVTEQDSKDSTYSLSSTLTLSKADYEKHKVYACEVTHQGLSSPVTKSFNRGEC
notes: DANAPA IgG1 format; also called anti-PD1 antibody; PD-1 specific antibody
B2: mAb2 G1 C-LC DANAPA IgG1 (bispecific antibody)
heavy: EVQLVESGGGLVQPGGSLKLSCAASGFTFNTYAMNWVRQAPGKGLEWVARIRSKYNNYATYYADSVKDRFTISRDDSKNTAYLQMNSLKTEDTAVYYCVRHGNFGDSYVSWFAYWGQGTLVTVSSASTKGPSVFPLAPSSKSTSGGTAALGCLVKDYFPEPVTVSWNSGALTSGVHTFPAVLQSSGLYSLSSVVTVPSSSLGTQTYICNVNHKPSNTKVDKKVEPKSCDKTHTCPPCPAPELLGGPSVFLFPPKPKDTLMISRTPEVTCVVVAVSHEDPEVKFNWYVDGVEVHNAKTKPREEQYASTYRVVSVLTVLHQDWLNGKEYKCKVSNKALAAPIEKTISKAKGQPREPQVYTLPPSREEMTKNQVSLTCLVKGFYPSDIAVEWESNGQPENNYKTTPPVLDSDGSFFLYSKLTVDKSRWQQGNVFSCSVMHEALHNHYTQKSLSLSPGK
light: not shown
notes: also called CD3/CD33 bispecific FynomAb with Fynomer G1; FynomAb with the DANAPA IgG Fc
B3: mAb2 DANAPA IgG1 (antibody)
heavy: B2 heavy
light: QTVVTQEPSLTVSPGGTVTLTCRSSTGAVTTSNYANWVQQKPGQAPRGLIGGTNKRAPGTPARFSGSLLGGKAALTLSGVQPEDEAEYYCALWYSNLWVFGGGTKLTVLGQPKAAPSVTLFPPSSEELQANKATLVCLISDFYPGAVTVAWKADSSPVKAGVETTTPSKQSNNKYAASSYLSLTPEQWKSHRSYSCQVTHEGSTVEKTVAPTECS
notes: Humanized anti-CD3 antibody in DANAPA IgG1 format; also called anti-CD3 antibody mAb2; CD3-specific antibody mAb2

Molecular target: T1, His-tagged human FcγRI (R&D, carrier-free formulation) (human, UniProt P12314 16-288)
T1 construct: also called CD64; human FcγR1
Experiment: AlphaScreen competition on His-tagged FcγRI; competitor biotinylated B21M LALA IgG1

Row | Binder | IC50 [nM]
1 | B1 | ≥ 600
2 | B2 | 206
3 | B3 | ≥ 600
